Common to all, as to test: fluorescence polarization
Details in all cases: 50 mM Tris-HCl pH 8.0, 50 mM KCl, 1 mM EDTA; 50 nM labeled oligonucleotide; temperature not stated

Data set [1] has as its target SAMHD1 HD domain R366C R366C (UniProt Q9Y3Z3).
For another data set, the target named is SAMHD1 HD domain WT (UniProt Q9Y3Z3).
Data set [2] concerns the target SAMHD1 HD domain R366H R366H (UniProt Q9Y3Z3).

Data on two substances can be found in publication PMC8497992.

Sequence of SAMHD1 HD domain R366C R366C (Q9Y3Z3 114-626 R366C): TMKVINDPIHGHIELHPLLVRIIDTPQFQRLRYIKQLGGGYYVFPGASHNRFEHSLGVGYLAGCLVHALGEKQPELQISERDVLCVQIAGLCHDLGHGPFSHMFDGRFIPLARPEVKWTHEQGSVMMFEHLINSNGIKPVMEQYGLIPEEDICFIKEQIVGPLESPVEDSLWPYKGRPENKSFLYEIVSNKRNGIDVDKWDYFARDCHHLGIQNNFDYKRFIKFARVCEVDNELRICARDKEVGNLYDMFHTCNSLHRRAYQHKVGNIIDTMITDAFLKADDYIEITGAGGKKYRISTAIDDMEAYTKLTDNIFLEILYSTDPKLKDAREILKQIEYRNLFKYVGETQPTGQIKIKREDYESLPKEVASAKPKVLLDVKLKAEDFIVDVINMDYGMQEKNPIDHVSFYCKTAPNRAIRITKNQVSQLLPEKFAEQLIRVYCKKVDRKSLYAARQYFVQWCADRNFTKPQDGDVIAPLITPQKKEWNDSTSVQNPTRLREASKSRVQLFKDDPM
Sequence of SAMHD1 HD domain R366H R366H (Q9Y3Z3 114-626 R366H): as the sequence (Q9Y3Z3 114-626 R366C) above, with C253H counted along it
Sequence of SAMHD1 HD domain WT (Q9Y3Z3 114-626): as the sequence (Q9Y3Z3 114-626 R366C) above, with C253R counted along it

Regarding 6FAM-ssDNA57, the Kd in data set [1] was 3.83 µM; with SAMHD1 HD domain WT it was 0.387 µM; in data set [2], 2.96 µM.

For 6FAM-ssRNA40, the figures for the Kd (in data set [1]; with SAMHD1 HD domain WT; in data set [2]) were 2.25 µM, 0.885 µM and 2.48 µM, respectively.
